Where two headings read alike, the source gives them in different places.
What was measured:
in vivo = experiment: in vivo; set-up: species or system NMRI nude mice; conditions: female, NMRI nude, mouse, iv, total radioactivity
Experimental: For PET/CT imaging, one mouse was injected with ^64Cu-DOTA-AE105 and scanned 1 h post injection. Gamma planar imaging was performed on another mouse 1 h post injection of ^177Lu-DOTA-AE105. Quantitative data were based on manual drawings of region-of-interest analyses on PET/CT data and from analyzed whole tumor tissue using a gamma-counter for planar data. A. Representative images after PET/CT (left) and Gamma planar (right) imaging of HT-29 tumor xenograft. White arrows indicate tumor xenograft. B. […] Quantitative tumor uptake data is presented as % ID/g±SEM based on three animals. Ten min static PET scans were acquired with a microPET Focus 120 scanner (Siemens Medical Solutions, Malvern, PA) 1 hr post i.v. injection of approximately 10 MBq of either ^64Cu-DOTA-AE105 or ^18F-FLT during sevoflurane anesthesia. All PET/CT settings were used as described in detail previously. All results were analyzed using Inveon software (Siemens Medical Solutions) and PET data was expressed as percent of injected dose per gram tissue (% ID/g), with CT-data expressed as cubic millimeters (mm^3). […] This is illustrated in FIG. 2A (left), where a colorectal HT-29 tumor bearing mouse was PET/CT scanned using ^64Cu-DOTA-AE105. […] In FIG. 2A (right) is a representative planar image of a HT-29 tumor bearing mice after injection of ^177Lu-DOTA-AE105.

[1] = Biodistribution in Nude mice bearing HT-29 tumor xenograft (gamma-counter); assay type: in vivo, NMRI nude mice; conditions: female, NMRI nude, mouse, iv, total radioactivity
Experimental: (§1) Mice were sacrificed at 0.5, 1.0, 2.0, 4.0 and 24.0 h after injection, and a panel of organs, including blood drawn from the heart, was collected, weighed, and analyzed for radioactive content. Mean percent injected dose per gram (% ID/g)±SEM from three mice at each point is presented. A. Chemical structure of ^177Lu-DOTA-AE105. B(top) Biodistribution of ^177Lu-DOTA-AE105 in selected organs/tissues between 0.5 and 24.0 h. B (bottom). […] HT-29 colorectal cancer cells were obtained from the American Type Culture Collection (Manassas, VA, USA) and culture media was obtained from Invitrogen Co. (Carlsbad, CA, USA). The cell line was cultured in Mc.Coy's standard medium supplemented with 10% (v/v) fetal bovine serum and 1% (v/v) penicillin/Streptomycin at 37° C. and 5% CO2. Xenografts of human HT-29 colorectal cancer cells was established by injection of 200 μl cells (1×10^8 cells/ml) suspended in 100 μl Matrigel (BD Biosciences, San Jose, CA, USA), subcutaneously in the left and right flank of female NMRI nude mice obtained from Taconic, under anesthesia by Hypnorm/doricum (Study day −3). All animal experiments were performed under a protocol approved by the Animal Research Committee of the Danish Ministry of Justice. Biodistribution study was performed as previously described. In brief, Nude mice bearing HT-29 xenografts were injected in the tail-vein with 2-3 MBq of ^177Lu-DOTA-AE105 or ^177Lu-DOTA-AE105mut. All mice were euthanized after 0.5, 1, 2, 4 and 24 hr post tracer injection. Blood, tumor and major organs were collected (wet-weight) and the radioactivity was measured using a γ-counter from Perkin Elmer, MA, USA (N=4 mice/group).

HT-29 tumor xenograft = experiment: as above; assay type: in vivo, NMRI nude mice; conditions: mouse, in vivo
Experimental: as §1

[2] = Toxicity in HT-29 therapy study (body weight, kidney H&E, deaths); assay type: in vivo, NMRI nude mice; conditions: HT-29 study
Source text: Results are presented as the mean±SEM, n=6 animals/group. B, H&E staining of kidney sections representing kidney epithelia (top) and glomerulus (Bottom) from each treatment group. […] One pair of kidneys from one animal/group was stained. Scale bar=25 μm, 40× zoom.
Three days after tumor cell inoculation (study day 0), 18 nude mice bearing the human colorectal carcinoma xenograft HT-29 in each flank were randomly divided into three groups consisting of 6 animals each. All animals in each group were first baseline PET/CT scanned with ^18F-FLT (day 0) before being dosed with 20 MBq of either ^177Lu-DOTA-AE105, ^177Lu-DOTA-AE105mut or vehicle. Subsequently, PET/CT scans of all mice in each group were repeated with ^18F-FLT on study day 1, 3 and 6. Second treatment dose (20 MBq) was administrated on day 7, followed by CT-scan day 8, 10 and 14 to measure tumor volumes using manual ROI drawing on the reconstructed images. On day 14, all animals were euthanized and tumors and kidneys were collected and kept for further analysis at −80° C.
uPAR ELISA on resected HT-29 tumors was done as described previously in detail. All results were performed as duplicate measurements. Expression of uPAR in formalin fixed and paraffin embedded tumor tissue was evaluated by immunohistochemical staining (FIG. 7) as previously published. A general histopathology examination was performed on H&E stained kidney tissue (one pair of kidneys from one animal from each treatment group) and performed by a trained pathologist (ODL).

[3] = set-up: species or system NMRI nude mice; conditions: mouse, in vivo
Source text: The organ uptake values, were time integrated to obtain the residence time per gram tissue for dosimetry calculations. Integration between time 0 and 24 hr was made by the trapezoid method. All time points were used to fit to a double exponential function (2-compartment model), which was used to estimate the residence time from 24 hr to infinity. The extrapolated area was in all organs/tissues <17% of the total calculated area, except kidneys (36.1%) and spleen (30.0%). The radioactive decay of ^177Lu produces mainly low energy […]. The S value for a 1 g sphere (0.0233 mGy/MBq s) was used to calculate the organ doses by multiplying it to the organ residence values as previously described. Based on the biodistribution data of ^177Lu-DOTA-AE105, estimates of the dosimetry were calculated (Table 1). […] However, the uPAR-positive fraction of the HT-29 tumor have previously been found only to be located in periphery of the tumor[25]. […] With this is mind and with the knowledge of the small penetration range of ^177Lu beta radiation (<2 mm), the present inventors calculated an estimate of local uPAR-positive tumor fraction dosimetry of approximate 58 mGy/MBq, thus resulting in the highest exposure for all organs/tissue investigated.

With `CC(C)C[C@H](NC(=O)[C@H](Cc1ccc(O)cc1)NC(=O)[C@@H](CCCNC(=N)N)NC(=O)[C@@H](CO)NC(=O)[C@H](Cc1ccccc1)NC(=O)[C@H](CC1CCCCC1)NC(=O)[C@H](CC(=O)O)NC(=O)CN1CCN(CC(=O)O)CCN(CC(=O)O)CCN(CC(=O)O)CC1)C(=O)N[C@@H](Cc1c[nH]c2ccccc12)C(=O)N[C@@H](CO)C(N)=O` [^64Cu-DOTA-AE105, metal not drawn] the tissue uptake at 1 h (in vivo) was 0.86 ± 0.03 %ID/g.
Work on `CC(C)C[C@H](NC(=O)[C@H](Cc1ccc(O)cc1)NC(=O)C(CCCNC(=N)N)NC(=O)C(CO)NC(=O)C(Cc1ccccc1)NC(=O)[C@H](CC1CCCCC1)NC(=O)[C@H](CC(=O)O)NC(=O)CN1CCN(CC(=O)O)CCN(CC(=O)O)CCN(CC(=O)O)CC1)C(=O)N[C@@H](Cc1c[nH]c2ccccc12)C(=O)N[C@@H](CO)C(N)=O` (stereo partly drawn) [^177Lu-DOTA-AE105, metal not drawn] yielded a tissue to tissue ratio at 1 h ([1]; in vivo) of 12, a tissue to tissue ratio at 24 h ([1]; in vivo) of 3.3 and a tissue uptake at 0.5 h ([1]; in vivo, % ID/g Blood) of 2.71 %ID/g. It also gave a tissue uptake at 1 h ([1]; in vivo, % ID/g Blood) of 0.282 %ID/g, a tissue uptake at 2 h ([1]; in vivo, % ID/g Blood) of 0.173 %ID/g and a tissue uptake at 4 h ([1]; in vivo, % ID/g Blood) of 0.043 %ID/g. The tissue uptake at 24 h ([1]; in vivo, % ID/g Blood) was 0.005 %ID/g, the tissue uptake at 0.5 h ([1]; in vivo, % ID/g Bone) was 0.696 %ID/g and the tissue uptake at 1 h ([1]; in vivo, % ID/g Bone) was 0.699 %ID/g. The tissue uptake at 2 h ([1]; in vivo, % ID/g Bone) was 0.267 %ID/g, the tissue uptake at 4 h ([1]; in vivo, % ID/g Bone) was 0.258 %ID/g and the tissue uptake at 24 h ([1]; in vivo, % ID/g Bone) was 0.32 %ID/g. The tissue uptake at 0.5 h ([1]; in vivo, % ID/g Brain) was 0.075 %ID/g, the tissue uptake at 1 h ([1]; in vivo, % ID/g Brain) was 0.038 %ID/g and the tissue uptake at 2 h ([1]; in vivo, % ID/g Brain) was 0.026 %ID/g. For the same molecule, the tissue uptake at 4 h ([1]; in vivo, % ID/g Brain) was 0.019 %ID/g, the tissue uptake at 24 h ([1]; in vivo, % ID/g Brain) was 0.005 %ID/g and the tissue uptake at 0.5 h ([1]; in vivo, % ID/g Heart) was 0.757 %ID/g. It also gave a tissue uptake at 1 h ([1]; in vivo, % ID/g Heart) of 0.143 %ID/g, a tissue uptake at 2 h ([1]; in vivo, % ID/g Heart) of 0.082 %ID/g and a tissue uptake at 4 h ([1]; in vivo, % ID/g Heart) of 0.05 %ID/g. It also gave a tissue uptake at 24 h ([1]; in vivo, % ID/g Heart) of 0.017 %ID/g, a tissue uptake at 0.5 h ([1]; in vivo, % ID/g Intestine) of 0.579 %ID/g and a tissue uptake at 1 h ([1]; in vivo, % ID/g Intestine) of 0.196 %ID/g. For the same molecule, the tissue uptake at 2 h ([1]; in vivo, % ID/g Intestine) was 0.271 %ID/g, the tissue uptake at 4 h ([1]; in vivo, % ID/g Intestine) was 0.289 %ID/g and the tissue uptake at 24 h ([1]; in vivo, % ID/g Intestine) was 0.078 %ID/g. It also gave a tissue uptake at 0.5 h ([1]; in vivo, % ID/g Liver) of 0.686 %ID/g, a tissue uptake at 1 h ([1]; in vivo, % ID/g Liver) of 0.249 %ID/g and a tissue uptake at 2 h ([1]; in vivo, % ID/g Liver) of 0.243 %ID/g. It also gave a tissue uptake at 4 h ([1]; in vivo, % ID/g Liver) of 0.284 %ID/g, a tissue uptake at 24 h ([1]; in vivo, % ID/g Liver) of 0.149 %ID/g and a tissue uptake at 0.5 h ([1]; in vivo, % ID/g Muscle) of 0.58 %ID/g. For the same molecule, the tissue uptake at 1 h ([1]; in vivo, % ID/g Muscle) was 0.084 %ID/g, the tissue uptake at 2 h ([1]; in vivo, % ID/g Muscle) was 0.047 %ID/g and the tissue uptake at 4 h ([1]; in vivo, % ID/g Muscle) was 0.053 %ID/g. The tissue uptake at 24 h ([1]; in vivo, % ID/g Muscle) was 0.01 %ID/g, the tissue uptake at 0.5 h ([1]; in vivo, % ID/g Spleen) was 0.924 %ID/g and the tissue uptake at 1 h ([1]; in vivo, % ID/g Spleen) was 0.262 %ID/g. The tissue uptake at 2 h ([1]; in vivo, % ID/g Spleen) was 0.222 %ID/g, the tissue uptake at 4 h ([1]; in vivo, % ID/g Spleen) was 0.303 %ID/g and the tissue uptake at 24 h ([1]; in vivo, % ID/g Spleen) was 0.109 %ID/g. The tissue uptake at 0.5 h ([1]; in vivo, % ID/g Tumor) was 1.78 %ID/g, the tissue uptake at 1 h ([1]; in vivo, % ID/g Tumor) was 0.614 %ID/g and the tissue uptake at 2 h ([1]; in vivo, % ID/g Tumor) was 0.17 %ID/g. The tissue uptake at 4 h ([1]; in vivo, % ID/g Tumor) was 0.17 ± 0.02 %ID/g, the tissue uptake at 24 h ([1]; in vivo, % ID/g Tumor) was 0.057 %ID/g and the tissue uptake at 0.5 h ([1]; kidney, Kidney, 0.5 h after injection, read-out: % ID/g Kidney) was 6.17 %ID/g. It also gave a tissue uptake at 1 h ([1]; kidney, Kidney, 1.0 h after injection, read-out: % ID/g Kidney) of 2.44 %ID/g, a tissue uptake at 2 h ([1]; kidney, Kidney, 2.0 h after injection, read-out: % ID/g Kidney) of 1.91 %ID/g and a tissue uptake at 4 h ([1]; kidney, Kidney, 4.0 h after injection, read-out: % ID/g Kidney) of 1.67 %ID/g. The tissue uptake at 24 h ([1]; kidney, Kidney, 24 h after injection, read-out: % ID/g Kidney) was 0.839 %ID/g, the “% ID/g Tumor” value (HT-29 tumor xenograft; female, NMRI nude, iv, 4 h) was 0.176 % ID/g and the “clearance from blood and organs” value (HT-29 tumor xenograft) was “fast clearance rate from blood and all organs investigated”. For the same molecule, the premature deaths [2] was “No animals died prematurely”, the “Dosimetry Blood” value [3] was 4.9 mGy/MBq and the “Dosimetry Bone” value [3] was 1.8 mGy/MBq. For the same molecule, the “Dosimetry Brain” value [3] was 0.4 mGy/MBq, the “Dosimetry Heart” value [3] was 2.0 mGy/MBq and the “Dosimetry Intestine” value [3] was 2.9 mGy/MBq. For the same molecule, the “Dosimetry Kidney” value [3] was 52.9 mGy/MBq, the “Dosimetry Liver” value [3] was 2.4 mGy/MBq and the “Dosimetry Muscle” value [3] was 1.2 mGy/MBq. For the same molecule, the “Dosimetry Spleen” value [3] was 5.5 mGy/MBq and the “Dosimetry Tumor” value [3] was 5.8 mGy/MBq.

Reference: patent US12589171B2, “177-Lu labeled peptide for site-specific uPAR-targeting” (priority 2012, dated 2026)
